Article PMC6172828

Columns and labels:
[1] = biological target: human ATF7IP peptide, K16me3, C-terminal biotin (human); experiment: SPR; same chip and buffer, 25 °C; kinetics not fitted, KD by steady-state affinity analysis; for all tri-methylated peptides and LIG1 K126me2 G9a SET-domain in twofold dilutions from 200 µM
[2] = biological target: histone H3 peptide, K9me1, C-terminal biotin (human); experiment: SPR; biotinylated peptides immobilised on streptavidin chip SA, Biacore T200, 25 °C, 10 mM HEPES pH 7.4, 150 mM NaCl; G9a SET-domain 1.5-fold dilutions from 20 or 10 µM; 1:1 binding model, KD calculated from kon and koff
[3] = biological target: histone H3 peptide, K9me2, C-terminal biotin (human); experiment: as above
[4] = biological target: histone H3 peptide, unmodified (K9me0), C-terminal biotin (human); experiment: as above
[5] = biological target: human ATF7IP peptide, K16me1, C-terminal biotin (human); experiment: as above
[6] = biological target: human ATF7IP peptide, K16me2, C-terminal biotin (human); experiment: as above
[7] = biological target: human ATF7IP peptide, unmodified (K16me0), C-terminal biotin (human); experiment: as above

Substance: human G9a SET-domain (residues 913–1193) (from UniProt Q96KQ7 913-1193) (domain or fragment)
- Kd [1]: > 1000 nM
- Kd [2]: 430 nM
- Kd [3]: 350 nM
- Kd [4]: 90 nM
- Kd [5]: 43 nM
- Kd [6]: 38 nM
- Kd [7]: 180 nM
